From publication doi:10.1101/2022.06.27.497739
Read-outs that look alike come from different tables or passages of the source.

Legend:
[1] = molecular target: Rpt1-I191AzF-Cy3 base (budding yeast (S. cerevisiae)) (UniProt P33299); assay: FRET or BRET
[2] = molecular target: Rpt1-I191AzF-Cy3 base (budding yeast (S. cerevisiae)) (UniProt P33299); assay: FRET or BRET; remark: listed apart in the source

- time constant (τ) of tail engagement [1]: 10.4 s
- time constant (τ) of tail engagement [2]: 16.4 s
Substance: polyubiquitinated titin-I27^V15P-Tail substrate labeled with Cy5 on its unstructured initiation domain (from UniProt P0CG63 1-76)
